Ends that are not written are not given here.

To fix the notation:
B1: Annexin I peptide (peptide)
peptide: Ac-AMVSEFLKQAWFIE
B2: S100A11 (natural protein, human, UniProt P31949 1-105, looked up)
chain: MAKISSPTETERCIESLIAVFQKYAGKDGYNYTLSKTEFLSFMNTELAAFTKNQKDPGVLDRMMKKLDTNSDGQLDFSEFLNLIGGLAMACHDSFLKAVPSQKRT
B3: Annexin II peptide (peptide)
peptide: Ac-STVHEILSKLSLEGY

For assay [1], the target named is B2. The assay is described as follows: ITC. (Isothermal titration calorimetry measures the heat released or taken up as one component is titrated into another.)
The target of assay [2] is T1, S100A6 (human, UniProt P06703 1-90). The assay is described as follows: ITC.
For assay [3], the target named is B2. The assay is described as follows: other fluorescence titration.
The target in assay [4] is T1, S100A6. Nature of the assay: other fluorescence titration.
The assay “Annexin I peptide” deals with B1. Nature of the assay: ITC.
Assay [5] addresses B2. Nature of the assay: ITC. This is another data set of the same source.
The target of a further assay is S100A10 (human, UniProt P60903 1-97). Nature of the assay: ITC.
Sequence of S100A10 (P60903 whole entry): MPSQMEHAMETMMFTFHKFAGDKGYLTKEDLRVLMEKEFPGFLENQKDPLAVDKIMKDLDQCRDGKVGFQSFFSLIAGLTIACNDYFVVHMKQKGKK

B1: the Kd with S100A11 [1] stood at 5 ± 2 µM; in the assay with S100A6 [2], 13 ± 4 µM; with S100A11 [3] it was 5 ± 1 µM; with S100A6 [4], 17 ± 4 µM.
As to B2, in the assay with Annexin I peptide, the “dH at 15°C” value was -0.956 kcal/mol, the “dH at 35°C” value is -7.17 kcal/mol and the “stoichiometry N” value is 2 binding sites per dimer.
Consider B3, for which the “stoichiometry N” value in the assay with S100A11 [5] and in the assay with S100A10 was 2 binding sites per dimer each time.

The term Kd denotes the equilibrium constant for the complex coming apart. Usually stoichiometry N stands for the number of molecules, sites or subunits per partner or assembly.

For the origin of these results see paper PMC2671235 (Biochemistry, 2009).
